Here are results for 2 molecules from patent publication US20220251236A1 (Boehringer Ingelheim, published 2022).

The target in one experiment is T1, Human CD3 E+G HuFc-6xHis (human).
T1 construct: also called hu CD3εγ-Fc
Nature of the experiment: SPR (ProteOn XPR36), HuCD3E_HuCD3G-Fc amine-coupled, bispecific as analyte, Example 4B. The protocol: (§1) The binding affinity of purified DLL3/CD3 bispecific constructs for recombinant human DLL3-ECD and Fc-fusion protein of human CD3 εγ subunits was determined by Surface Plasmon Resonance (SPR), using a ProteOn XPR36 instrument (Bio-Rad).
For binding kinetic determination to CD3, HuCD3E_HuCD3G-Fc (dissolved in pH 4.5 acetate) was immobilized directly onto the sensor surface through amine coupling for 360 sec at a flowrate of 30 μl/min vertically. The baseline was stabilized by injecting PBS-T-EDTA for 60 sec at a flowrate of 30 μl/min horizontally. The analytes (all anti-DLL3/CD3 molecules) were injected horizontally over the captured antibody for 600 sec at a flowrate of 30 μl/min and a dissociation for 1800 sec.

The next experiment addresses T2, EGF5+6.
T2 construct: also called Hu DLL3 EGF5+6 on HEK293 cells
T2 membrane-anchored DLL3 subdomain construct: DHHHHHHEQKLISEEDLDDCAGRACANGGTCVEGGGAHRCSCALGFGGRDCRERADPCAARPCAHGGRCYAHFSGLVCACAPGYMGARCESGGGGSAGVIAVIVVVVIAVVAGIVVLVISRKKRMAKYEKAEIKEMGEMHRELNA
Put plainly: flow cytometry on HEK293 cells expressing the DLL3 subdomain construct, PE anti-human secondary, control: secondary antibody only. The protocol: (§2) DLL3/CD3 binding proteins were produced by transient transfection of CHO-E cells with the pTT5 vectors carrying the chain-encoding genes, as described in Example 2. […] Bound molecules were detected with PE-conjugated anti-human secondary antibody (Sigma-Aldrich, #P8047). As negative control, cells were incubated with secondary antibody only.
(§3) The samples were measured by flow-cytometry. […] The sequences of the epitope domains are listed in Example 5, Table 3.
On the technique in general: Flow cytometry measures light scatter and fluorescence of single cells or particles in a stream.

For a further experiment, the target named is T3, EGF2+3.
T3 construct: also called Hu DLL3 EGF2+3 on HEK293 cells
T3 membrane-anchored DLL3 subdomain construct: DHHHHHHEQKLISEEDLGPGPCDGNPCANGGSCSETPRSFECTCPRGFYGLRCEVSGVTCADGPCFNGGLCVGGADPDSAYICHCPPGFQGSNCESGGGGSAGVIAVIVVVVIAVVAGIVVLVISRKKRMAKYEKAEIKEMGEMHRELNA
Described as above. The protocol: as §2, §3

For experiment [1], the target named is T4, EGF6+MEMBRANE PROXIMAL PEPTIDE.
T4 construct: also called Hu DLL3 EGF6+membrane proximal peptide on HEK293 cells
T4 membrane-anchored DLL3 subdomain construct: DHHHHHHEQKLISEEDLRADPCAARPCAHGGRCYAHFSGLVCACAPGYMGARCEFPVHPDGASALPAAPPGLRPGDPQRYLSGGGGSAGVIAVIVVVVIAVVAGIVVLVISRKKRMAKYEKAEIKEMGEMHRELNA
Described as above. The protocol:
as §2, §3

In another experiment the target is T5, EGF1+2.
T5 construct: also called Hu DLL3 EGF1+2 on HEK293 cells
T5 membrane-anchored DLL3 subdomain construct: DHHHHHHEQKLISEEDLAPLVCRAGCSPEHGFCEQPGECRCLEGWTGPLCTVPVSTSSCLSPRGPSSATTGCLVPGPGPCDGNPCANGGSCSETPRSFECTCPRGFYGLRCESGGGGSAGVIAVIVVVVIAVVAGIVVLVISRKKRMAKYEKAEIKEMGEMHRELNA
Described as above. The protocol:
as §2, §3

Another experiment has as its target T6, EGF3+4.
T6 construct: also called Hu DLL3 EGF3+4 on HEK293 cells
T6 membrane-anchored DLL3 subdomain construct: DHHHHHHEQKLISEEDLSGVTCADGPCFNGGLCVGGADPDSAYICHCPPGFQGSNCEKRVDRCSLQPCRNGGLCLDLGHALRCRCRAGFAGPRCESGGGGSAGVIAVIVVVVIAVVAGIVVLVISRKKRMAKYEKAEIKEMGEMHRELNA
Described as above. The protocol: as §2, §3

The next experiment addresses T7, EGF4+5.
T7 construct: also called Hu DLL3 EGF4+5 on HEK293 cells
T7 membrane-anchored DLL3 subdomain construct: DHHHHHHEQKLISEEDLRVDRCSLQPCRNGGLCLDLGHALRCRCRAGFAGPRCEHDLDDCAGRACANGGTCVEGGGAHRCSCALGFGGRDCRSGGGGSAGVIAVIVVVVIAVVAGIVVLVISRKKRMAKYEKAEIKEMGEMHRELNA
The experiment is described as above. As to the method: as §2, §3

In the next experiment the target is T8, Human DLL3-His (human, UniProt Q9NYJ7 27-492).
T8 construct: also called huDLL3-His; hu DLL3
T8 sequence: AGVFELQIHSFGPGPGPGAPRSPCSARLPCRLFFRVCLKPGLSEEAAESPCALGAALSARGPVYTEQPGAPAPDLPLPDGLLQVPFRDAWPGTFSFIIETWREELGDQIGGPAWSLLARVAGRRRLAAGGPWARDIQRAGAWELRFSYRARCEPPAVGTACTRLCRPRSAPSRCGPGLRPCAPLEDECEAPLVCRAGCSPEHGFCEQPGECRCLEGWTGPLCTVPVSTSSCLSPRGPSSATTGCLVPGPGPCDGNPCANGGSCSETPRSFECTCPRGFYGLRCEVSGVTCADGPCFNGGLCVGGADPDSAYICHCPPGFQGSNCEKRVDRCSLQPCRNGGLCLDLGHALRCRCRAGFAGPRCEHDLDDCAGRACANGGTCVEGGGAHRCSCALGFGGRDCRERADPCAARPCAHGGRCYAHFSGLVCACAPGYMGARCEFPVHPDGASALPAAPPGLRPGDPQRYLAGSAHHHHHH
Put plainly: SPR (ProteOn XPR36), bispecific captured on protein A/G, hu DLL3 as analyte, Example 4B. The protocol:
as §1
For binding kinetic determination to DLL3, anti-DLL3/CD3 molecules were captured individually on the protein A/G surface vertically for 200 sec at a flowrate of 30 μl/min. The baseline was stabilized by injecting PBS-T-EDTA for 60 sec at a flowrate of 30 μl/min horizontally. The analyte (hu DLL3) was injected horizontally over the captured antibody for 300 sec at a flowrate of 30 μl/min and a dissociation for 1800 sec.

In experiment [2] the target is T9, trypsin inhibitor from glycine max soybean (Glycine max (soybean)).
T9 construct: also called Tryp
Nature of the experiment: SPR (Biacore T200), trypsin inhibitor on CM5 chip, sample at 1 µM. The text has this:
To prepare the surface for the non-specific binding experiment, chicken egg white lysozyme and trypsin inhibitor from glycine max soybean were coupled manually to a series S CM5 chip with the surface density of 3000-5000 RU using the amine coupling kit according to the manufacture instructions.
(In general: SPR reads the build-up and loss of mass on a sensor chip optically.)

T9 sequence (P01070 25-205): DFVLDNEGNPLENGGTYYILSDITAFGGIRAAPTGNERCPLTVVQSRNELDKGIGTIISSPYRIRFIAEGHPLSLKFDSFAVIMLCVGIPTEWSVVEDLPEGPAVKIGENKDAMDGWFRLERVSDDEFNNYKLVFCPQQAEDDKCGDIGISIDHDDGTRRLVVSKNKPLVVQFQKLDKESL
T1 sequence (chain, as listed by the source limits assumed): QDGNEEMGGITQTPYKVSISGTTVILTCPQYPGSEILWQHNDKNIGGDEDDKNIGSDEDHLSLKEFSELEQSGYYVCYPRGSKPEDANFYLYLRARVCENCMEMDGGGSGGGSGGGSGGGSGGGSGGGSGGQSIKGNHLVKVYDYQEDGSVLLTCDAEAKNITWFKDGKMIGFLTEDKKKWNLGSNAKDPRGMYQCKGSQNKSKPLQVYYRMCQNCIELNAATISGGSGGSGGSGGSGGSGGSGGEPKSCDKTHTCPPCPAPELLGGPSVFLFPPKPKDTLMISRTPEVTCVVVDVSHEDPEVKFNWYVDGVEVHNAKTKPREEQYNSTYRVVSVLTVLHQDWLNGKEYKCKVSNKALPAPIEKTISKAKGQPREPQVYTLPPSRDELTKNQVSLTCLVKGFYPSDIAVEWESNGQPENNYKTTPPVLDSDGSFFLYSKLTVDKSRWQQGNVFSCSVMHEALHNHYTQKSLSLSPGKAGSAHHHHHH

B1: DLL3#14/CD3#1 (bispecific antibody, human IgG1, kappa, lambda, L234A L235A)
chain 1: not shown
chain 2: EAVVTQEPSLTVSPGGTVTLTCRSSTGAVTTSNYANWVQEKPGQLPRGLIGGTNKRAPWVPARFSGSLLGGKAALTLSGAQPEDEAEYFCALWYSNLWVFGGGTKLTVLGQPKAAPSVTLFPPSSEELQANKATLVCLISDFYPGAVKVAWKADGSPVNTGVETTTPSKQSNNKYAASSYLSLTPEQWKSHRSYSCQVTHEGSTVEKTVAPAECSGGGGSEGKSSGSGSESKSTEGKSSGSGSESKSTGGGGSEVQLVESGGGLVQPGGSLKLSCAASGFTFNTYAMNWVRQAPGKGLEWVARIRSKYNNYATYYADSVKDRFTISRDDSKNTAYLQMNNLKTEDTAVYYCVRHGNFGNSYVSWFAYWGQGTLVTVSAASTKGPSVFPLAPSSKSTSGGTAALGCLVKDYFPEPVTVSWNSGALTSGVHTFPAVLQSSGLYSLSSVVTVPSSSLGTQTYICNVNHKPSNTKVDKRVEPKSCDKTHTCPPCPAPEAAGGPSVFLFPPKPKDTLMISRTPEVTCVVVDVSHEDPEVKFNWYVDGVEVHNAKTKPREEQYNSTYRVVSVLTVLHQDWLNGKEYKCKVSNKALPAPIEKTISKAKGQPREPQVYTLPPSREEMTKNQVSLSCAVKGFYPSDIAVEWESNGQPENNYKTTPPVLDSDGSFFLVSKLTVDKSRWQQGNVFSCSVMHEALHNRFTQKSLSLSPG
notes: Heterodimer of one DLL3 chain and one CD3 chain (scFab-Fc, knob-in-hole)
A word on the Kd: it is the free concentration of one partner at which half of the binding sites on the other are occupied at equilibrium, for simple one-to-one binding. A higher Kd goes with weaker binding. On to B1, for which the dissociation constant Kd in the experiment with Human CD3 E+G HuFc-6xHis came to 3 nM; with Human DLL3-His, 0.06 nM. Besides, the binding result (with EGF5+6; with EGF2+3; in [1]; in the experiment with EGF1+2; in the experiment with EGF3+4; in the experiment with EGF4+5) was “no binding (tested: 1.6 nM)” each time. Besides, in [2], the “Non-specific binding (RU)” value stood at 6 RU.

B2: DLL3#16/CD3#1 (bispecific antibody, human IgG1, kappa, lambda, L234A L235A)
chain 1: DIQMTQSPSTLSASVGDRVTITCRASQSVSDWLAWYQQKPGKAPKFLIYRASSLESGVPSRFSGSGSGTEFTLTISSLQPADFATYYCQLYNSYSPTFGQGTKVEIKRTVAAPSVFIFPPSDEQLKSGTASVVCLLNNFYPREAKVQWKVDNALQSGNSQESVTEQDSKDSTYSLSSTLTLSKADYEKHKVYACEVTHQGLSSPVTKSFNRGECGGGGSEGKSSGSGSESKSTEGKSSGSGSESKSTGGGGSEVHLVESGGGLVQPGGSLRLSCAASGFTFSSYWMTWVRQAPGKGLEWVANIKEDGSEKYYVDSVKGRFTISRDNAKNSLYLQMNSLRAEDTALYYCARDWGYFDYWGQGTLVTVSSASTKGPSVFPLAPSSKSTSGGTAALGCLVKDYFPEPVTVSWNSGALTSGVHTFPAVLQSSGLYSLSSVVTVPSSSLGTQTYICNVNHKPSNTKVDKRVEPKSCDKTHTCPPCPAPEAAGGPSVFLFPPKPKDTLMISRTPEVTCVVVDVSHEDPEVKFNWYVDGVEVHNAKTKPREEQYNSTYRVVSVLTVLHQDWLNGKEYKCKVSNKALPAPIEKTISKAKGQPREPQVYTLPPSREEMTKNQVSLWCLVKGFYPSDIAVEWESNGQPENNYKTTPPVLDSDGSFFLYSKLTVDKSRWQQGNVFSCSVMHEALHNHYTQKSLSLSPG
chain 2: EAVVTQEPSLTVSPGGTVTLTCRSSTGAVTTSNYANWVQEKPGQLPRGLIGGTNKRAPWVPARFSGSLLGGKAALTLSGAQPEDEAEYFCALWYSNLWVFGGGTKLTVLGQPKAAPSVTLFPPSSEELQANKATLVCLISDFYPGAVKVAWKADGSPVNTGVETTTPSKQSNNKYAASSYLSLTPEQWKSHRSYSCQVTHEGSTVEKTVAPAECSGGGGSEGKSSGSGSESKSTEGKSSGSGSESKSTGGGGSEVQLVESGGGLVQPGGSLKLSCAASGFTFNTYAMNWVRQAPGKGLEWVARIRSKYNNYATYYADSVKDRFTISRDDSKNTAYLQMNNLKTEDTAVYYCVRHGNFGNSYVSWFAYWGQGTLVTVSAASTKGPSVFPLAPSSKSTSGGTAALGCLVKDYFPEPVTVSWNSGALTSGVHTFPAVLQSSGLYSLSSVVTVPSSSLGTQTYICNVNHKPSNTKVDKRVEPKSCDKTHTCPPCPAPEAAGGPSVFLFPPKPKDTLMISRTPEVTCVVVDVSHEDPEVKFNWYVDGVEVHNAKTKPREEQYNSTYRVVSVLTVLHQDWLNGKEYKCKVSNKALPAPIEKTISKAKGQPREPQVYTLPPSREEMTKNQVSLSCAVKGFYPSDIAVEWESNGQPENNYKTTPPVLDSDGSFFLVSKLTVDKSRWQQGNVFSCSVMHEALHNRFTQKSLSLSPG
notes: as for B1
Take B2: the Kd amounted to 2 nM in the experiment with Human CD3 E+G HuFc-6xHis and 0.228 nM in the experiment with Human DLL3-His. Moreover, the binding result (with EGF5+6; in the experiment with EGF2+3; in experiment [1]; with EGF1+2; in the experiment with EGF3+4; with EGF4+5) was “no binding (tested: 1.6 nM)” throughout. In experiment [2], the “Non-specific binding (RU)” value came to 0 RU.
